For one experiment, the system named is tryptase. Put plainly: GPK-AMC assay for tryptase activity (Dixon plot). In kind it is biochemical, human. As to conditions: Table V footnote. As for the experimental part: Tryptase activity was measured according to the procedure of Schwartz, et al., J. Biol. Chem., 261, 7372-7379 (1986) , with minor modifications, using Gly-Pro-Lys-Aminomethylcoumarin (GPK-AMC) as a substrate. The reaction was performed in assay buffer (0.1M Tris, pH 8.0, 10 μg/ml heparin) at room temperature in a 96-well microtiter plate (Perkin-Elmer, Norwalk, Conn.). The amount of coumarin produced by tryptase was determined by measuring the fluorescence (ex=372 nm, em=432 nm) on a Perkin-Elmer LS-50B fluorimeter equipped with a plate reader. 50 μl of tryptase (final concentration of 333 pM) was mixed with either 50 μl of the sample to be tested or with assay buffer and incubated for 5 min. at room temperature. […] The fluorescence intensity was measured every 5 minutes. For samples that were being tested for modulators of tryptase activity, the % inhibition for each fraction was determined by:
Inhibitory activity against tryptase and bovine trypsin was measured using Gly-Pro-Lys-aminomethylcoumarin as a substrate. […] The amount of coumarin produced was determined by measuring the fluorescence (ex=370 nm, em=432 nm) on a Perkin-Elmer LS-50B fluorimeter. […] The reaction was started by the addition of the substrate GPK-AMC (20 or 40 μM final) and the increase in fluorescence was measured over a 2 minute period. […]

The next experiment has as its system human mast cell tryptase. Kind of experiment: VIP assay for tryptase activity (Dns-VIP hydrolysis, HPLC/fluorescence, Dixon plot). In kind it is biochemical. As to conditions: rate of loss of full-length VIP (1-28), 0.2 and 0.8 μM VIP, 37° C., read-out: Ki for inhibition of tryptase degradation of full length Dns-VIP. Here is the method:
In a typical assay, mast cell tryptase (12.5 pM) was incubated at 37° C. with dansyl-VIP (0.2-2 μM) in 100 mM Tris-HCl (pH 8.0) containing 1 μg/ml porcine mucosal heparin and 0.02% Triton X-100 in a final volume of 2.0 ml. To some samples, secretory leukocyte protease inhibitor was added to a final concentration of between 0 and 107 nM. The tryptase was pre-incubated with the SLPI, if added, for 5 min. at 37° C. before initiating the reaction by the addition of Dns-VIP. Aliquots (250 μl) were removed at 0, 2.5, 5.0, 7.5, 10, and 20 minutes to micro-vials (Sunbrokers) and the reaction terminated by the addition of TFA to a final concentration of 3% (v/v). The acidified reaction mixture was subjected to chromatography on a C-18 reverse-phase column (Vydac, 5 micron, 0.46×25 cm). Peptide hydrolysis was monitored by HPLC using a Hewlett Packard HP1090 unit complete with binary solvent delivery and autoinjection capability. Fluorescent detection (postcolumn) was performed with an inline Gilson Model 121 filter fluorimeter (excitation at 310-410 nm, emission at 480-520 nm). Dns-VIP fragments were separated from any unconverted Dns-VIP using a linear gradient of 69:31 (v/v) to 50:50 (v/v) C:D over 5.5 minutes (C=100 mM sodium acetate, pH 6.5 plus 0.2% sodium azide, D=80% ACN in water), with return to 69:31 (v/v) C:D at 6.5 minutes. Chromatography was performed at 1.0 ml/min at 25° C. […]

Values joined by “and” are separate entries in the source; they are usually repeats but may differ in a detail not shown here. Identical values can stand only once. Like-named read-outs stand apart in the source and are kept apart here.

B1: secretory leukocyte protease inhibitor (protein)
chain: SGKSFKAGVCPPKKSAQCLRYKKPECQSDWQCPGKKRCCPDTCGIKCLDPVDTPNPTRRKPGKCPVTYGQCLMLNPPNFCEMDGQCKRDLKCCMGMCGKSCVSPVKA
As for B1, in the experiment on tryptase, the “Response in GPK-AMC tryptase assay” value was “biphasic response”. The Ki in the experiment with human mast cell tryptase (listed as Full SLPI) is 8 nM; with human mast cell tryptase it was 8 nM and ~8 nM.

The term Ki denotes a measure of affinity in units of concentration, obtained from inhibition or displacement.
